± gives the standard deviation of the averaged measurements.
Test: total protein half-life in vivo (active degradation + dilution); higher = more stable protein
[1] = E. coli NCM3722 delta-clpP delta-lon delta-hslV, growth: N-lim chemostat, doubling time 6 h
[2] = E. coli NCM3722 delta-clpP, growth: N-lim chemostat, doubling time 6 h
[3] = E. coli NCM3722 delta-hslV, growth: N-lim chemostat, doubling time 6 h
[4] = E. coli NCM3722 delta-lon, growth: N-lim chemostat, doubling time 6 h
[5] = E. coli NCM3722 delta-smpB, growth: N-lim chemostat, doubling time 6 h
[6] = wild type E. coli NCM3722, growth: C-lim chemostat, doubling time 3 h
[7] = wild type E. coli NCM3722, growth: C-lim chemostat, doubling time 6 h
[8] = wild type E. coli NCM3722, growth: C-lim chemostat, doubling time 12 h
[9] = wild type E. coli NCM3722, growth: N-lim chemostat, doubling time 12 h
[10] = wild type E. coli NCM3722, growth: P-lim chemostat, doubling time 6 h
[11] = wild type E. coli NCM3722, growth: P-lim chemostat, doubling time 12 h
[12] = wild type E. coli NCM3722, growth: N-lim chemostat, doubling time 6 h

Sequence	total protein half-life in vivo [1]	total protein half-life in vivo [2]	total protein half-life in vivo [3]	total protein half-life in vivo [4]	total protein half-life in vivo [5]	total protein half-life in vivo [6]	total protein half-life in vivo [7]	total protein half-life in vivo [8]	total protein half-life in vivo [9]	total protein half-life in vivo [10]	total protein half-life in vivo [11]	total protein half-life in vivo [12]
MAISTPMLVTFCVYIFGMILIGFIAWRSTKNFDDYILGGRSLGPFVTALSAGASDMSGWLLMGLPGAVFLSGISESWIAIGLTLGAWINWKLVAGRLRVHTEYNNNALTLPDYFTGRFEDKSRILRIISALVILLFFTIYCASGIVAGARLFESTFGMSYETALWAGAAATILYTFIGGFLAVSWTDTVQASLMIFALILTPVIVIISVGGFGDSLEVIKQKSIENVDMLKGLNFVAIISLMGWGLGYFGQPHILARFMAADSHHSIVHARRISMTWMILCLAGAVAVGFFGIAYFNDHPALAGAVNQNAERVFIELAQILFNPWIAGILLSAILAAVMSTLSCQLLVCSSAITEDLYKAFLRKHASQKELVWVGRVMVLVVALVAIALAANPENRVLGLVSYAWAGFGAAFGPVVLFSVMWSRMTRNGALAGMIIGALTVIVWKQFGWLGLYEIIPGFIFGSIGIVVFSLLGKAPSAAMQKRFAEADAHYHSAPPSRLQES	5.44 ± 0.019 h	4.61 ± 0.21 h	4.68 ± 0.42 h	4.66 h	4.592 ± 0.044 h	3.51 ± 0.45 h	5.52 ± 0.072 h	9.72 ± 1.1 h	7.25 ± 1.6 h	5.18 ± 0.42 h	10.6 ± 0.28 h	–
MAKHLFTSESVSEGHPDKIADQISDAVLDAILEQDPKARVACETYVKTGMVLVGGEITTSAWVDIEEITRNTVREIGYVHSDMGFDANSCAVLSAIGKQSPDINQGVDRADPLEQGAGDQGLMFGYATNETDVLMPAPITYAHRLVQRQAEVRKNGTLPWLRPDAKSQVTFQYDDGKIVGIDAVVLSTQHSEEIDQKSLQEAVMEEIIKPILPAEWLTSATKFFINPTGRFVIGGPMGDCGLTGRKIIVDTYGGMARHGGGAFSGKDPSKVDRSAAYAARYVAKNIVAAGLADRCEIQVSYAIGVAEPTSIMVETFGTEKVPSEQLTLLVREFFDLRPYGLIQMLDLLHPIYKETAAYGHFGREHFPWEKTDKAQLLRDAAGLK [P0A817]	2.78 ± 0.62 h	2.16 ± 0.45 h	2.01 ± 0.14 h	2.41 ± 0.18 h	2.15 ± 0.17 h	2.97 ± 0.16 h	4.63 ± 0.68 h	6.86 ± 0.4 h	2.72 ± 0.053 h	5.17 ± 0.096 h	9.5 ± 0.32 h	2.1 ± 0.1 h
MAKNIQAIRGMNDYLPGETAIWQRIEGTLKNVLGSYGYSEIRLPIVEQTPLFKRAIGEVTDVVEKEMYTFEDRNGDSLTLRPEGTAGCVRAGIEHGLLYNQEQRLWYIGPMFRHERPQKGRYRQFHQLGCEVFGLQGPDIDAELIMLTARWWRALGISEHVTLELNSIGSLEARANYRDALVAFLEQHKEKLDEDCKRRMYTNPLRVLDSKNPEVQALLNDAPALGDYLDEESREHFAGLCKLLESAGIAYTVNQRLVRGLDYYNRTVFEWVTNSLGSQGTVCAGGRYDGLVEQLGGRATPAVGFAMGLERLVLLVQAVNPEFKADPVVDIYLVASGADTQSAAMALAERLRDELPGVKLMTNHGGGNFKKQFARADKWGARVAVVLGESEVANGTAVVKDLRSGEQTAVAQDSVAAHLRTLLG	5.71 ± 1.3 h	5.11 ± 0.23 h	5.44 ± 0.23 h	5.45 ± 0.52 h	4.85 ± 0.12 h	3.17 ± 0.23 h	6.14 ± 0.2 h	10.5 ± 0.68 h	9.1857 ± 0.0011 h	5.98 ± 0.1 h	13.7 ± 0.34 h	4.8 ± 0.22 h
MAKNTSCGVQLRIRGKVQGVGFRPFVWQLAQQLNLHGDVCNDGDGVEVRLREDPETFLVQLYQHCPPLARIDSVEREPFIWSQLPTEFTIRQSTGGTMNTQIVPDAATCPACLAEMNTPGERRYRYPFINCTHCGPRFTIIRAMPYDRPFTVMAAFPLCPACDKEYRDPLDRRFHAQPVACPECGPHLEWVSHGEHAEQEAALQAAIAQLKMGKIVAIKGIGGFHLACDARNSNAVATLRARKHRPAKPLAVMLPVADGLPDAARQLLTTPAAPIVLVDKKYVPELCDDIAPDLNEVGVMLPANPLQHLLLQELQCPLVMTSGNLSGKPPAISNEQALADLQGIADGFLIHNRDIVQRMDDSVVRESGEMLRRSRGYVPDALALPPGFKNVPPVLCLGADLKNTFCLVRGEQAVLSQHLGDLSDDGIQMQWREALRLMQNIYDFTPQYVVHDAHPGYVSSQWAREMNLPTQTVLHHHAHAAACLAEHQWPLDGGDVIALTLDGIGMGENGALWGGECLRVNYRECEHLGGLPAVALPGGDLAAKQPWRNLLAQCLRFVPEWQNYSETASVQQQNWSVLARAIERGINAPLASSCGRFFDAVAAALGCAPATLSYEGEAACALEALAASCHGVTHPVTMPRVDNQLDLATFWQQWLNWQAPVNQRAWAFHDALAQGFAALMREQATMRGITTLVFSGGVIHNRLLRARLAHYLADFTLLFPQSLPAGDGGLSLGQGVIAAARWLAGEVQNG	–	–	–	–	–	–	–	9.74 ± 2.4 h	–	–	–	–
MAKNYYDITLALAGICQSARLVQQLAHQGHCDADALHVSLNSIIDMNPSSTLAVFGGSEANLRVGLETLLGVLNASSRQGLNAELTRYTLSLMVLERKLSSAKGALDTLGNRINGLQRQLEHFDLQSETLMSAMAAIYVDVISPLGPRIQVTGSPAVLQSPQVQAKVRATLLAGIRAAVLWHQVGGGRLQLMFSRNRLTTQAKQILAHLTPEL	6.52 ± 1.1 h	5.78 ± 0.42 h	6.17 ± 0.66 h	5.23 ± 0.89 h	6 ± 0.18 h	3.36 ± 0.65 h	5.87 ± 0.23 h	12.2 ± 2.8 h	10.6 ± 0.7 h	6.04 ± 0.18 h	13.2 ± 0.51 h	5.449 ± 0.017 h
MAKQDYYEILGVSKTAEEREIRKAYKRLAMKYHPDRNQGDKEAEAKFKEIKEAYEVLTDSQKRAAYDQYGHAAFEQGGMGGGGFGGGADFSDIFGDVFGDIFGGGRGRQRAARGADLRYNMELTLEEAVRGVTKEIRIPTLEECDVCHGSGAKPGTQPQTCPTCHGSGQVQMRQGFFAVQQTCPHCQGRGTLIKDPCNKCHGHGRVERSKTLSVKIPAGVDTGDRIRLAGEGEAGEHGAPAGDLYVQVQVKQHPIFEREGNNLYCEVPINFAMAALGGEIEVPTLDGRVKLKVPGETQTGKLFRMRGKGVKSVRGGAQGDLLCRVVVETPVGLNERQKQLLQELQESFGGPTGEHNSPRSKSFFDGVKKFFDDLTR	–	6.07 ± 0.65 h	4.941 ± 0.031 h	6.155 ± 0.042 h	4.51 ± 0.36 h	2.67 ± 0.034 h	4.97 ± 0.22 h	9.44 ± 0.52 h	8.73 ± 0.55 h	5.193 ± 0.045 h	11.41 ± 0.11 h	4.9 ± 0.55 h
MAKSLFRALVALSFLAPLWLNAAPRVITLSPANTELAFAAGITPVGVSSYSDYPPQAQKIEQVSTWQGMNLERIVALKPDLVIAWRGGNAERQVDQLASLGIKVMWVDATSIEQIANALRQLAPWSPQPDKAEQAAQSLLDQYAQLKAQYADKPKKRVFLQFGINPPFTSGKESIQNQVLEVCGGENIFKDSRVPWPQVSREQVLARSPQAIVITGGPDQIPKIKQYWGEQLKIPVIPLTSDWFERASPRIILAAQQLCNALSQVD	3.92 ± 0.45 h	5.19 ± 0.79 h	6.42 ± 0.87 h	5.93 ± 0.48 h	5.67 ± 0.72 h	–	6.08 ± 0.89 h	4.41 ± 0.44 h	12.1 ± 1.3 h	–	12.3 ± 0.33 h	5.44 ± 0.56 h
MAKYNEKELADTSKFLSFVLRHKPEAIGIVLDREGWADIDKLILCAQKAGKRLTRALLDTVVATSDKKRFSYSSDGRCIRAVQGHSTSQVAISFAEKTPPQFLYHGTASRFLDEIKKQGLIAGERHYVHLSADEATARKVGARHGSPVILTVKAQEMAKRGLPFWQAENGVWLTSTVAVEFLEW	4.33 h	1.59 h	–	2.51 h	1.27 ± 0.11 h	1.85 h	2.25 ± 0.44 h	5.97 h	–	–	–	–
MALLDFFLSRKKNTANIAKERLQIIVAERRRSDAEPHYLPQLRKDILEVICKYVQIDPEMVTVQLEQKDGDISILELNVTLPEAEELK [P0A734]	5.76 ± 0.51 h	4.57 ± 0.13 h	–	3.791 ± 0.018 h	4.06 ± 0.14 h	2.736 ± 0.016 h	4.59 ± 0.27 h	6.36 ± 0.066 h	6.22 ± 0.13 h	4.14 ± 1.5 h	8.17 ± 0.36 h	3.626 ± 0.022 h
MALLEICCYSMECALTAQQNGADRVELCAAPKEGGLTPSLGVLKSVRQRVTIPVHPIIRPRGGDFCYSDGEFAAILEDVRTVRELGFPGLVTGVLDVDGNVDMPRMEKIMAAAGPLAVTFHRAFDMCANPLYTLNNLAELGIARVLTSGQKSDALQGLSKIMELIAHRDAPIIMAGAGVRAENLHHFLDAGVLEVHSSAGAWQASPMRYRNQGLSMSSDEHADEYSRYIVDGAAVAEMKGIIERHQAK	5.29 ± 1.1 h	5.31 ± 1.4 h	5.99 ± 2.8 h	4.73 ± 0.25 h	4.47 ± 0.33 h	3.26 ± 0.64 h	6.29 ± 0.61 h	9.735 ± 0.081 h	6.84 ± 0.21 h	5.85 ± 0.37 h	11.8 ± 1.1 h	4.35 ± 0.53 h
MALLNVDKLSVHFGDESAPFRAVDRISYSVKQGEVVGIVGESGSGKSVSSLAIMGLIDYPGRVMAEKLEFNGQDLQRISEKERRNLVGAEVAMIFQDPMTSLNPCYTVGFQIMEAIKVHQGGNKSTRRQRAIDLLNQVGIPDPASRLDVYPHQLSGGMSQRVMIAMAIACRPKLLIADEPTTALDVTIQAQIIELLLELQQKENMALVLITHDLALVAEAAHKIIVMYAGQVVETGDAHAIFHAPRHPYTQALLRALPEFAQDKERLASLPGVVPGKYDRPNGCLLNPRCPYATDRCRAEEPALNMLADGRQSKCHYPLDDAGRPTL [P0AAG0]	6.72 ± 1.2 h	6.26 ± 0.28 h	6.21 ± 0.75 h	7.31 ± 0.78 h	6.33 ± 0.16 h	3.12 ± 0.29 h	6.95 ± 0.84 h	12 ± 0.99 h	12.6 ± 0.25 h	6.27 ± 0.38 h	13.3 ± 1.2 h	5.94 ± 0.23 h

Source: the supplement of paper PMC11246515
